Laboratory results published in article PMC9482650, “Quantitative fragmentomics allow affinity mapping of interactomes” (Nature Communications, 2022).

T1: DFNB31_1, Q9P202
T1 sequence (Q9P202 135-233, limits assumed, looked up): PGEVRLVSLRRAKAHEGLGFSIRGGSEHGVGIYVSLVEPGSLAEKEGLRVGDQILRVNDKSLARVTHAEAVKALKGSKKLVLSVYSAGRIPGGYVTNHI

T2: DFNB31_2, Q9P202
T2 sequence (Q9P202 274-371, limits assumed, looked up): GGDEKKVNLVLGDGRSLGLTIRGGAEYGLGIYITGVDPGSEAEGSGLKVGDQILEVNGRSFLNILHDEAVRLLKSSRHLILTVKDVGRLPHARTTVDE

T3: DLG3_3, Q92796
T3 sequence (Q92796 374-475, limits assumed, looked up): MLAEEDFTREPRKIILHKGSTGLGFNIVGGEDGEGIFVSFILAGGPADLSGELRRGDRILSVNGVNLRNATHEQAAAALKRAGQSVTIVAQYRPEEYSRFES

T4: DVL3, Q92997
T4 sequence (Q92997 244-331, limits assumed, looked up): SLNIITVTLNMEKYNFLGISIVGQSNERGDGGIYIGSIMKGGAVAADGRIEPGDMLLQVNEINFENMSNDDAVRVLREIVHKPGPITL

T5: HTRA4, P83105
T5 sequence (P83105 378-476, limits assumed, looked up): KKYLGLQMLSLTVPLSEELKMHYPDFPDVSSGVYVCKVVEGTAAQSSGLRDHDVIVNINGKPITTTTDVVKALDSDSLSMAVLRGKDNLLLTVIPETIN

T6: LIN7B, Q9HAP6
T6 sequence (Q9HAP6 88-185, limits assumed, looked up): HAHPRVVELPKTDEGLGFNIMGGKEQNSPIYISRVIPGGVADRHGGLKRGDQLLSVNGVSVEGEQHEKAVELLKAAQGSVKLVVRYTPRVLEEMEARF

T7: MPDZ_10, O75970
T7 sequence (O75970 1624-1722, limits assumed, looked up): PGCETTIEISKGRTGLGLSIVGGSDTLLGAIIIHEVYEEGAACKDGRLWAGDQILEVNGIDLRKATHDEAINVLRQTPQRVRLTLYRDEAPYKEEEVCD

T8: NHERF3_1, Q5T2W1
T8 sequence (Q5T2W1 4-100, limits assumed, looked up): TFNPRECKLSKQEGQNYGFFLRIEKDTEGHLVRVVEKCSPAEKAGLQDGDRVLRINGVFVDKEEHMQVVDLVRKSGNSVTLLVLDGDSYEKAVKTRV

T9: RAPGEF6, Q8TEU7
T9 sequence (Q8TEU7 525-625, limits assumed, looked up): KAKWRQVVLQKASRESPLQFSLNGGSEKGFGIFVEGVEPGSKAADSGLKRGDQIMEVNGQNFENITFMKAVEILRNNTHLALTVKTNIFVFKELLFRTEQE

T10: SNTA1, Q13424
T10 sequence (Q13424 82-180, limits assumed, looked up): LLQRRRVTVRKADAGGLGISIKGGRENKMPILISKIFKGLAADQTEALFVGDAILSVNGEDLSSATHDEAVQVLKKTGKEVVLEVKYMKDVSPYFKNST

T11: SNTG1, Q9NSN8
T11 sequence (Q9NSN8 52-150, limits assumed, looked up): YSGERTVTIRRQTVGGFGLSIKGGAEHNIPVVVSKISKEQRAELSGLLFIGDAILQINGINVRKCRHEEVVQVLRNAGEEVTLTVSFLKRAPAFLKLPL

T12: SNTG2, Q9NY99
T12 sequence (Q9NY99 68-166, limits assumed, looked up): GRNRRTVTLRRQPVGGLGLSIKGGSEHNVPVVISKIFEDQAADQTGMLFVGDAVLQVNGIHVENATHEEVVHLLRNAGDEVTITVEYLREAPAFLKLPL

T13: TIAM2, Q8IVF5
T13 sequence (Q8IVF5 885-986, limits assumed, looked up): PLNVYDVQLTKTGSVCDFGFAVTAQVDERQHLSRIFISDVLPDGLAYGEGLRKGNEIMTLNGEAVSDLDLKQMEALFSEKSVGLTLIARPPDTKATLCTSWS


Tests used:
Experiment in all cases: holdup assay
Parameters in all cases: key: below the threshold = too weak to quantify, mostly under pKd 3.1 to 4
Details in all cases: plain residues with an end cap or a label only (N-terminal biotin on a linker: ado-ado)
[1] = target: T1, DFNB31_1, Q9P202
[2] = target: T2, DFNB31_2, Q9P202
[3] = target: T3, DLG3_3, Q92796
[4] = target: DLG5_1, Q8TDM6
[5] = target: T4, DVL3, Q92997
[6] = target: FRMPD2_3, Q68DX3
[7] = target: GORASP2, Q9H8Y8
[8] = target: GRIP2_5, Q9C0E4
[9] = target: T5, HTRA4, P83105
[10] = target: IL16_1, Q14005
[11] = target: IL16_4, Q14005
[12] = target: Inadl_8, Q8NI35
[13] = target: LIMK2, P53671
[14] = target: T6, LIN7B, Q9HAP6
[15] = target: T7, MPDZ_10, O75970
[16] = target: T8, NHERF3_1, Q5T2W1
[17] = target: NOS1, P29475
[18] = target: PARD3_3, Q8TEW0
[19] = target: PDLIM1, O00151
[20] = target: T9, RAPGEF6, Q8TEU7
[21] = target: SCRIB_1, Q14160
[22] = target: T10, SNTA1, Q13424
[23] = target: T11, SNTG1, Q9NSN8
[24] = target: T12, SNTG2, Q9NY99
[25] = target: T13, TIAM2, Q8IVF5

Inadl_8, Q8NI35, sequence (Q8NI35 1425-1530): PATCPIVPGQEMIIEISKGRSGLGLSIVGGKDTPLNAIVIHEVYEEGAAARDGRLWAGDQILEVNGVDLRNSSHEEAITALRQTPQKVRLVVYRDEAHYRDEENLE
PARD3_3, Q8TEW0, sequence (Q8TEW0 582-685): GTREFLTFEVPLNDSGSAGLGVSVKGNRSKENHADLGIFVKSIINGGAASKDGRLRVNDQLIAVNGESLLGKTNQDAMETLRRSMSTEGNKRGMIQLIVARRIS
SCRIB_1, Q14160, sequence (Q14160 718-814): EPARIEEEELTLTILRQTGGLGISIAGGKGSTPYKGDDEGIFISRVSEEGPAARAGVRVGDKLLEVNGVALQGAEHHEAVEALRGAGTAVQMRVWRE
PDLIM1, O00151, sequence (O00151 1-87): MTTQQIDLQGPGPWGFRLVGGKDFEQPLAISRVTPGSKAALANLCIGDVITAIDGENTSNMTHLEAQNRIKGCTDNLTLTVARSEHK
DLG5_1, Q8TDM6, sequence (Q8TDM6 617-713): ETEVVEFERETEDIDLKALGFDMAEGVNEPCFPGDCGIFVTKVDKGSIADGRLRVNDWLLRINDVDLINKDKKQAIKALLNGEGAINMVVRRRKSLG
IL16_4, Q14005, sequence (Q14005 1229-1329): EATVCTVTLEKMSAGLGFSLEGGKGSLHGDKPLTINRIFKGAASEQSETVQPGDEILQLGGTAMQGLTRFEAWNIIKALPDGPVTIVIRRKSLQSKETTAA
IL16_1, Q14005, sequence (Q14005 210-306): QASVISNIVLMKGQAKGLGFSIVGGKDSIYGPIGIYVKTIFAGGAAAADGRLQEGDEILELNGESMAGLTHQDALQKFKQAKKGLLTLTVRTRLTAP
LIMK2, P53671, sequence (P53671 143-248): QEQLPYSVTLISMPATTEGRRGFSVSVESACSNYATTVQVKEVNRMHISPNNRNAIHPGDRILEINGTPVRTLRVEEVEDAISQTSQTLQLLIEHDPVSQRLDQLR
NOS1, P29475, sequence (P29475 9-101): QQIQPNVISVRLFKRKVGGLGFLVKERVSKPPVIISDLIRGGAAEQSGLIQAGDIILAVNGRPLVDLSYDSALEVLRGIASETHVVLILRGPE
GRIP2_5, Q9C0E4, sequence (Q9C0E4 544-642): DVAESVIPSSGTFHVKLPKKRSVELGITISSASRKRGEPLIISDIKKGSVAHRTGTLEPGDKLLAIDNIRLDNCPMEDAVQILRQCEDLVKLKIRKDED
FRMPD2_3, Q68DX3, sequence (Q68DX3 1073-1166): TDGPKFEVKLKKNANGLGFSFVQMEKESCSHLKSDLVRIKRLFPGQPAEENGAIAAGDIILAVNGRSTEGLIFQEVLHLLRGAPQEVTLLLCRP

Row | pKd [1] | pKd [2] | pKd [3] | pKd [4] | pKd [5] | pKd [6] | pKd [7] | pKd [8] | pKd [9] | pKd [10] | pKd [11] | pKd [12] | pKd [13] | pKd [14] | pKd [15] | pKd [16] | pKd [17] | pKd [18] | pKd [19] | pKd [20] | Binder | also measured
1 | below the threshold | below the threshold | 3.81 | below the threshold | below the threshold | below the threshold | 3.87 | below the threshold | 4.01 | 3.57 | below the threshold | 4.6 | below the threshold | below the threshold | 4.03 | below the threshold | 4.17 | below the threshold | below the threshold | below the threshold | TFSRRPKTRV [CD226, Q15762] | pKd [21]: below the threshold; pKd [22]: 3.79; pKd [23]: below the threshold; pKd [24]: 3.55; pKd [25]: below the threshold
2 | 3.77 | below the threshold | 4.13 | 3.91 | 3.61 | 3.74 | 3.99 | below the threshold | 3.79 | below the threshold | 3.68 | below the threshold | below the threshold | below the threshold | below the threshold | below the threshold | 3.53 | 3.58 | below the threshold | 3.54 | TNSKQGETTV [FZD1, Q9UP38] | pKd [21]: 4.07; pKd [22]: 4.51; pKd [23]: 4.31; pKd [24]: 4.16; pKd [25]: below the threshold
3 | below the threshold | below the threshold | below the threshold | below the threshold | below the threshold | below the threshold | below the threshold | below the threshold | below the threshold | below the threshold | below the threshold | 4.08 | below the threshold | below the threshold | 3.72 | below the threshold | below the threshold | below the threshold | below the threshold | below the threshold | QQGLLPHSSC [TYRO3, Q06418] | pKd [21]: below the threshold; pKd [22]: below the threshold; pKd [23]: below the threshold; pKd [24]: below the threshold; pKd [25]: below the threshold
4 | below the threshold | below the threshold | below the threshold | below the threshold | below the threshold | below the threshold | below the threshold | below the threshold | below the threshold | below the threshold | below the threshold | below the threshold | below the threshold | below the threshold | below the threshold | 3.62 | 3.47 | below the threshold | below the threshold | below the threshold | KSRPENGTVC [TMEM178B, H3BS89] | pKd [21]: 3.78; pKd [22]: below the threshold; pKd [23]: below the threshold; pKd [24]: below the threshold; pKd [25]: below the threshold
5 | 3.98 | below the threshold | 3.6 | below the threshold | below the threshold | below the threshold | below the threshold | below the threshold | below the threshold | below the threshold | below the threshold | below the threshold | below the threshold | below the threshold | below the threshold | 6.1 | 3.5 | below the threshold | 3.71 | below the threshold | EAVTVESTSL [SLC22A11, Q9NSA0] | pKd [21]: 4.56; pKd [22]: 3.65; pKd [23]: 3.5; pKd [24]: 3.64; pKd [25]: below the threshold
6 | 4.19 | below the threshold | 3.56 | below the threshold | below the threshold | below the threshold | below the threshold | below the threshold | 3.9 | 4.05 | below the threshold | below the threshold | below the threshold | below the threshold | below the threshold | 3.82 | below the threshold | 3.68 | below the threshold | below the threshold | IQISELETNV [SLC1A7, O00341] | pKd [21]: 4.11; pKd [22]: 4.98; pKd [23]: 5.26; pKd [24]: 4.91; pKd [25]: below the threshold
